# Laboratory results: the DeepSol protein solubility set
# Experiment: soluble on expression in E. coli; label from the status in PepcDB or PDB records
row,Sequence,soluble on expression in E. coli
1,MAHHHHHHMLWVDKYRPKSLVEVELYPELTEVLKRLAESQDLPHLLLYGPSGTGKKTRAMAVLHHVYGPSVYSLRLEHRSVQVTDSKVVDIATLSSPHHIDINPSDAGNYDRVIVMQMIREIAQTVSLQSSTSNGVKYKVVLLNEVDKMGRAAQHALRRTMEKYMSTCRLVLICNSTSRLIAPLRSRCLAVRVPSHSKENLTKVIRGVCERENRPLPSPEFMATVTQRSEGNLRRALLMVEAAAMTKVDFSGNGADIPQPDWRVFLDEIANDILSEQTPKKLHEIRGKFYNLLGQCVSGELILRLVLEKLMSAVDPALRRPLVALAAQYDHNMKLGTKTIVHLEAFAAGVMQLLKQK,not soluble
2,MAHHHHHHMMKLNRNVLFKKGEKITYSVKSVIFIINVIRTRGEEDDDNNNISGKSILGTSHNNISNIDLSSIPNLDSNIHASFSSDTKEWSPNNLTSKKKKKKKEIRPKDIMSNSDSSNTSSINKQNNNQIKSVLLKENKGVKITGPCNVNLSIFLVPHIYIDVETKYNNIELKYELDEFSDSIKFKDTTTELRTSDDTLMNTNFNVGVSRDTLDKDRLYNICAENKTFKFVVYIKDNILTLKWKVYETGVTNNKVDIRQYKMKELTRPITTIQIHSVSENKDTHLLESKNYVIKTDIPETCDVMATNCFLSGNINIEKCLECTLLVQNNDTSSECFTYVSNDVRENFNQIKAEAEDDENFRNYHLTDTINNILKRIYKINKNEGKKELITLEELDNFLKESITDYCKILREIDTNGTLVNHELGNNVDVFNNLIRLLKLHKNESISTLHNKLRNSAICMKYPDKWIEKKTGLILPNVVNNNIIYNNKYEKLNEEKKRKIYDNKDDSKISDIINIKKYIFTNNTLKYFNNDKQFCNSSFCNRLKDENNCISKIQIEDQGNCAISWIFASKYYLETLKCMKGYEPHAISALYIANCSKRKHKNRCNVGSNPLEFLQIIEENQFLPMDTNYLYSYTKVGNDCPDEEKNWVNLLKHTRMLNYNNKHRSTLSTKAYRAYESEHFKDKMDTFIKLIKDEIMNNGSVIAYVKAENVLGYELNGKNVQNLCGDKTPDHAVNIVGYGNYINDEDEKKSYWIVRNSWGKYWGDEGYFKVDMYGPSTCEDNFIHTVVVFNINMPKSKKSPVKITFPLYNYYLKYSPDFYHNLYYKNFNSKKSMKLVNASDEHKNIYSQEDKVNHKKGSKILNSEVTTSLLSQEISQRRGEDDDIDTLIGDSPDINEQEKNIKDEFNKSSITHNSVSSSNITKSNKNTNKVKIYHIIKHVKNTKIKIGFVKYDNYNTIGTNHTCSRSYSEDQEKHEGCIKFCELHWNECKDKTSPGYCLTKLKGSNECFFCYV,not soluble
3,MAHHHHHHMNFPDSRVLSDEFPRRKYKPSSATRLEDIVLKGLHYGQRKLLLSEIEFLSAYLEGRQAGAKPTLVVYAGAANGSHLPFLFQLFEAVKFVLIDPAPFCDAVREISLNKQGPILDLVQGFCTDELCKQLSSSYGSTYDILLVSDIRSGVPEKQSNRENTLMIMRDNDMQRSWCWTLKAEAALLKFHPPYPPCRDRNSRHYDEADDTPESIEYLDGVRLFGVWAPKSSSELRLCVQGPFLQGTSFPMRRYDCTTHEEQCYFYNTDNRYTRDCAAESGILERYLQLFPSAPYSDPTALSMTISNFLGFPLFLPLDSSFSESDARWVTLLYSTRIPTCLELFTTLRGRVTHTVMKQLAEEWQSATTVPKGVSIDSVELTSEFWKAVCAGDLTEAYSFPNIRWRFANLLISRRRKRSASDRAP,not soluble
4,MAHHHHHHMNILHKIFTPGSKSKKTLLHCDAELGDRQSHSSSKVSTAVQVKSKLTAASSDDDDCGPLMRSVSMTVVSDPVPSSFKTNSSFANQSRPTQGPASFKSARLANSFSNASCHLERHHQHTAALASSVSRHNQRSLFDKIHSSGSFAVGETTVSGGSFTANGGTVNLWRLPWTQQKVTMCPNCHRPRQRDRTMQVSRASYTLQETTIENGMGDDMSEANEDMSYSDSEGMGGPMSDSVTCRCGVVSEGDAPLDYDDSAEATEEHPKLFVVETQNPSAVQLPGTIAEASDSEGEGREDVRRSYKLSLVSSPTPTSLRRRAPRVQPLLSGASPQTNTASVPKRVTHWLHEQQTSEARVVLKPKAAR,not soluble
5,MAHHHHHHMNKDTICAWCFDVLKYELKNEKFDKVPPLIQSLHNDGFKIPFFVKWMKLNDVKDMGSYNYDAYELNGCIGCLGETDIMELRYYALESSLNDTRFYPITLKDFPFLIVTITYLFNFEKCAHVYDWVIGKHGIKISFVANKRRYSSTFLPEVASQHNFDHQTTVKKLIRKANYRGEINDELLENIEVERYEGVSCSLTHVDYERV,not soluble
6,MAHHHHHHMNVINRMLSRGHVAASASLPIKERPFPVNYGLSTFKWHLDSRKPSKAILLHDLFGSSAYWQMLLHESLGRLPCSGLTPLVPLELFAVDFRGHNHSKSLPCPEEGRAFTMACAADIMLLQQQVLRADAKLVGIGFGALVACQAALHSPESGIDSLVLIVNGPSDLLACEPARYSLPSFISDIPKEISSVADLEHHLHKRVPNEAERALILSTVEQREGTVGFKFNETLFQFRGPLCGFSDVGPENIFTKPVTVIQCGSEEFSGEAKSDFMKHFPKAKFVLFEGDRSGGISGLSAQGPAVTRTLLEAMELLGETTGGEE,not soluble
7,MAHHHHHHMPLTCRSFCEWALAYMGTQEYTPSIIQQRNSMAAAERDPDDRNVLDFSTYEDYLDQQVTGEDLFYLEDQDAARKIVELGYKGKDVLSREEFEAAQYLARTGPLKRRESAEVITSAGKDVSDSPLLTALAKREELVRTGKLATVLFLRDYVSGQEVSAYIDYGYRLRSENFEAYFKKDKKLLPKRSDLSYYNWKTHTLFYNNSPTFQVLADSTLGLVMKHKRDRKAIHVDPNSPSPGENCSRTVVPCKDYLQAVIYDHVTRRKN,soluble
8,MAHHHHHHMPNDTLQVKLSQDSLFFPLPFTNATIDNVVQVKNMLPVVQGDPKANVISFKILSRVQNRYSVHPPVGFIGAGEHATIIFSFNPEHVKMAKNPEERELPTEATKDAIHVDFAVVDAPSVQTALAHWVPGSKETKASWEVVADASRFWKQRGQVKENSPITMRYKLRCVFATRNNVPDSLVMCMKEEGGCCKLITDGAAPLPRTRPPMTSSTQPQNTAPPEAPPHRYSESQRTTPTTRSPRSDACCTPCAIGPPGIFTMGPGAAAAASAPSASPPSSAPTQKSKTSAGITCGDITLKSIAEEVLNYKLSYRAVGVLLFLTLLCGLLDQSNLLTWLIAKQ,not soluble
9,MAHHHHHHMPSWCLIESDPAVFTELIQRFGAQGVAVEEIVQLEQEYLRVHTNVYGLILLFKWKARKEGAATDGVVVPDAPVFFVQQTVNNACATLSIVNILLNHKESIELGEVLGNFLSFTQDMNPYLRGTQVGECDALREAHNSFAPVELFSLDHSVPDAGDAYHFVSFVYKNSAIWELDGLQEGPILASDASDENYRDKLMEVVRKRIRDHSAEDTTGAGQGISFSLMAVVDDPLVLLERRIYEATLQEAPTHYLEEQLNQLTKQRAREKLENQRRRHNYVPMIVELLKALAEKGQLKGILDDALAKKSGQGAKQ,soluble
10,MAHHHHHHMPTNAAQALEKLVPGRLLQLADNGTPTIVTPLGNEGSLNALIHAYKGKGYLPYFTHAVKAAQRSLVNELRAAGVEVPNGAEASHLEGVCGVHCRDEASCSHIIPDEHITATLYGEDTDDTRMIVACDPIQTKLRDDCVECFPRVNKVSGWEELVVRVHLFYPNTVPCMSVQDRRARLVTQKQFVPKNARTLQGYHVFHYAKRGSSVRTPHCESMFPYTPKTTESKGFTRENRCTAITVESVFVRDPARQQRPFYAEDAGQARVYFSYLRVDAFVTDDELVEHFPLESMDVAAMPAFTDNRYVEKYHVLVRLYLLAHDQGWTATQPHGCPHPLGDRVGLPVLFRSCATEVIVPDACSHDSQLLLRQRLLPDVEMQVTRFCFRRIVSEVLRQRVVAAAADTPECCIPVVCYMPYSDRVPVFTDKQVGVLARLYPHLGIRRPTSRREWADLSRTLYQHCISLFDILAAVGVPLRDAHGAVIDTDAYVPYTADMADDYFLVIANRPLRDYTCVTNQRWLCEQLLLPDHRPPISARAFAAWVRYWNAMAQLKHELEKQVTLDTVSAHLGLRLPAGKTGQRAACLVNGLVTDAKGGLIFPKLGGRRFRDREHVGALLPGAPVLYSFWVDGKLQFTYVRMPMRFVRGLPLKQVNGQRPVQSVIAAGGAPANRGDGTQRGGGQVGEERRANVAIHA,not soluble
11,MAHHHHHHMQDSVLLSEAFDASHRPWPNRPERKKGVSPSGRDFNMTLYRMKGCPYCERVEWLLRYHLVPFEIVEVGPLTTKGFPDQRFVQVPQIGLEAVADPNNPHAAEKSVAYVADSQHIIAAISAPLGFTKQLSDPRIMETRKWMMERFQAAGFLAINSTWRDAYTTYPHVTPSHYYYQNPIFHVVGATALYALAKYKVAPRFAAEESATSGFPSMENSLQRDPSAWLAAELSGFATRLSGGCHQLHGGKEPDIADVEMYGLTRIIDAHPRLRSALHEGPLKEWCAAMEAALQKRTHVTKK,not soluble
12,MAHHHHHHMQLMRAVTLKGFGDTDMLQISRIPKAVITRGRDILIKVSAAGVNRADAAQRKGHYLPPKGSSEVLGLEVSGIVEEVGVDVKDFKEGDKVMALLPGGGYAEYAVAHEGSVMHIPQGYSFIEAAAIPEAFLTAWQALKYHGDCCKGQKVLIHAGASGVGTAAAQLVEKYFQATALTTSSESKVEVCKNFASINFTRTPDETGMCFSPKVKRLLGEGAINLVLDSVFGGSYISEDAAVLAKDGRIVVLAFMGGATVHLNCLPLLRQRAHVMFSKLRCQSDDYKQNLVDTFEEAVIPYMNERLIVPVANKTYPLEEVAQAHMRLDDSKAWGKIVLTFNSHLSATSTNPPPTLTA,not soluble
13,MAHHHHHHMQPVKTAVGIRQGLRRCTQLPNKSFRILHVSPRQLTVSTGGDDILKEQRRLQQHGTCTRNNIFRHGVVCACNLLQGYTISIKTNSLIHHSLNFTGNTKTQASKDTHLSNKLYQTFRIIHLHPPIRINVHQWCIGIQNECMAVILHIHRPMFI,not soluble
14,MAHHHHHHMQQQPRPVVAQYAYIELLPLRYTGPAPPPAPACMDPTPDEQYRRGVAEKRAALKQKEARRQMSSSGSGMLASLKSAVSQAVMTMEKGAADVSTRTESQVRQLEYQYDCDRFNLHFHELAENGEVLLADYRCSAMHSGLRVNGHVQITPHYLCFLAETTSSIAKTTDAVMGVFVAARHPTSANDEPRNRPVGIKQVIALADIVSIQPSVVLESI,soluble
15,MAHHHHHHMQYNLIGSKINNHYVVDPYVSLLYLKRAYKFLRLLKDSGGEAIILGNKHREVHLEHYFGNVQRKETCSLNILTNVTKRYDLLICTDLPLFYPYMRNVLIPKMLVADGATFVKYKTFLHAFDYFIPLTGEKLDRHLHYVLARRYLSGGELR,not soluble
16,MAHHHHHHMRLHLPGRRDTRTASTGSSPVASLFLQKPIIFRKVAHGSASTILNVKRLELVLLETQSDQGKSEPDIQRLHWLTPHKLHQVHNDRITTATLQKNKVHSGYQFVLHIVQVSLEFLYRQKKAIILQLAERTLHERIFGGAKQLYHHQRAAGGGGK,not soluble
17,MAHHHHHHMRMRPFTASTAATPTAAGAAPASSMSSPAPLRKARESATGSAGSYFLGSSTFSVYEEMARQLREEGWRRKTEAAIATADFILGDRFRIPYTLLRVERMARSSWFGGTRWVNYFEGSHRLTLKAAMVQLMKEVDTHWATWLPESYAVGGDQLKKADERRALLEALAAAGDDDAVWIVKPSSGAKGRHILLLRASAVPEWLERLPESSKSMYVVQRYVDRPLLLSNGRKFDIRVWALLVSPYSIYAYTQVSCRTASEPYDLSDITNTHVHLTNHCLQKDAAHFGEYEEENEMWLPQLQSYLTSIGKPADLLETRVLPAIKELLVRTLLAVMPEMAVPATEAYKCFQLFGYDMILTEEADVRLLEINGSPGVAERFLTPLVRSMRELLGAGPKDGTGSTTTTRNCDNTSHEGFSENGSSSNSGCASPTSASSSCPGRRRTSHAFSAATSATGATRNWRLEDEGFVLLWRRGDAVPPGLVDVC,not soluble
